Reference: paper PMC12412652 (2025)
Blank lines part the entries; values can stand above or below the binder they belong to.

How the values were obtained:
Assay in all cases: BLI
[1] = target: MBP-BAK 16-186, biotinylated (Avi tag, 6-histidine tag) (human, UniProt Q16611 16-186, biotin on the Avi tag (enzymatic, BirA))
BCL-2 = BCL-2 (UniProt P10415 1-239, biotin)
BFL-1 = target: T1, BFL-1 (UniProt Q16548 1-175, biotin)
T1 chain: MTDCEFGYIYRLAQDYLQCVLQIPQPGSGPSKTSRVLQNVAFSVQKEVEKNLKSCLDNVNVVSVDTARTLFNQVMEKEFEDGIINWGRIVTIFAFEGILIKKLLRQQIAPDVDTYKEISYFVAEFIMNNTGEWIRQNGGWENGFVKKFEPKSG

BCL-XL = BCL-XL (Homo sapiens)
BCL-B = target: T2, BCL-B (Homo sapiens)
T2 chain: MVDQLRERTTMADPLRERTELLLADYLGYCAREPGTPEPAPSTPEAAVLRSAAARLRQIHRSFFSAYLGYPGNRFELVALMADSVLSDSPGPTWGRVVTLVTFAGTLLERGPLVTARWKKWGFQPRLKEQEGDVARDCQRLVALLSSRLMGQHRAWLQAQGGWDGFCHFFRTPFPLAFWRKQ

BCL-W = target: T3, BCL-W (Homo sapiens)
T3 chain: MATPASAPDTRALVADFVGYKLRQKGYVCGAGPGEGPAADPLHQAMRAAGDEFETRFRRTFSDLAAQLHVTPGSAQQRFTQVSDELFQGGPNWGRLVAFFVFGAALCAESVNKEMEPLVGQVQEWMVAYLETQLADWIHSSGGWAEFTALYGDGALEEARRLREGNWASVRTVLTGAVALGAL

[2] = target: MBP-BAX 1-166 C62S C126S, biotinylated (Avi tag, 6-histidine tag) (human, UniProt Q07812 1-166, C62S | C126S, biotin on the Avi tag (enzymatic, BirA))
MCL-1 = target: T4, MCL-1 (Homo sapiens)
T4 chain: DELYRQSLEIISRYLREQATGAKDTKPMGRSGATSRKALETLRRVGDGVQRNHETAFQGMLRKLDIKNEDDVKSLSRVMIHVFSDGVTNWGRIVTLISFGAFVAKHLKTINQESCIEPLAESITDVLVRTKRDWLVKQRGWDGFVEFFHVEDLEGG

Chain of BCL-XL (Homo sapiens) (chain, as listed by the source): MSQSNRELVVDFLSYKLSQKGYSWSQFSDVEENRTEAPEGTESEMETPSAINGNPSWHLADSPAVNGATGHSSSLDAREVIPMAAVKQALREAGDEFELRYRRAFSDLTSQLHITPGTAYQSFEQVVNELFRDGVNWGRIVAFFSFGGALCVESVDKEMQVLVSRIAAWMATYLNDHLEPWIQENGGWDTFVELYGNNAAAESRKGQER
Chain of MBP-BAX 1-166 C62S C126S, biotinylated (Avi tag, 6-histidine tag) (Q07812 1-166 C62S/C126S): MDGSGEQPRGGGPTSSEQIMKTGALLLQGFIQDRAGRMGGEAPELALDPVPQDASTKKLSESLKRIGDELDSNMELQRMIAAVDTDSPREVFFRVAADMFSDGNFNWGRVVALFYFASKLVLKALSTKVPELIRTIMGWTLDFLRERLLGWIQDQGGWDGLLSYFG
Chain of BCL-2 (P10415 1-207): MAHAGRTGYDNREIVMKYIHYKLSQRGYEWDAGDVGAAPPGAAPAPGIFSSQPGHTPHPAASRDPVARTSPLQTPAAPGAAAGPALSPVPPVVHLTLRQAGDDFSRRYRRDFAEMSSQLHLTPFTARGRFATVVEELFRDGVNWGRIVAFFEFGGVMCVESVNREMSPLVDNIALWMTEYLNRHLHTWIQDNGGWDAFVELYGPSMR

B2: BAX-CDP01 (BAX-targeting computationally designed protein 01) (designed binder)
chain: GADPKKVLDKARDQAENRVRELAQKLEELYKEARKLDLTQEERRKLEKRYKAAMEEAIKDIREAIRQAKQEADKLKKAGLVNSQQLKELKQRLNELAIAAALRAIGDAIEFRRKLQYG
modifications: biotinylated for BLI (Avi tag). Limits not given; the soluble form lacking the transmembrane segment (210-226) is taken by convention. Any loop deletion is not stated
Kd (BCL-XL): 38 nM

B3: BAX-CDP01 (BAX-targeting computationally designed protein 01) (designed binder)
chain: GADPKKVLDKARDQAENRVRELAQKLEELYKEARKLDLTQEERRKLEKRYKAAMEEAIKDIREAIRQAKQEADKLKKAGLVNSQQLKELKQRLNELAIAAALRAIGDAIEFRRKLQYG
modifications: biotinylated for BLI (Avi tag). Limits not given; the soluble form lacking the transmembrane segment (183-200) is taken by convention
Kd (BCL-B): 2000 nM

B4: αBAX2 (designed binder)
chain: GADPKKVLDKARDQAENRVRELRQKLTELYKEARKLDLTQEERRKLIKRYKAAMNEAIKDIHEAIEQAKEEADKLKDAGLVNEQQLKELKQRLNEKALAAAFRASGDTWHARRKLQYG
modifications: biotinylated for BLI (Avi tag). Limits not printed in the text (constructs as in cited earlier work); the soluble form lacking the C-terminal tail is taken by convention. Any solubility mutations are not stated
Kd (BCL-W): 30000 nM

B5: αBAK2 (designed binder)
chain: GADPKKVLDKADDQMENVVVTLKQELEELAKERRKLDLTQSEKIELKLRYIVAHLAAIGDIEEAIREAKEEADKLKKAGLVNSQQFAEFKRRLEELHKEADRKRRDYAEEFRNKLEYG
modifications: biotinylated for BLI (Avi tag). Limits not given; the soluble form lacking the transmembrane segment (183-200) is taken by convention
Kd (BCL-B): 3000 nM

B10: αBAK2 (designed binder)
chain: GADPKKVLDKADDQMENVVVTLKQELEELAKERRKLDLTQSEKIELKLRYIVAHLAAIGDIEEAIREAKEEADKLKKAGLVNSQQFAEFKRRLEELHKEADRKRRDYAEEFRNKLEYG
modifications: biotinylated for BLI (Avi tag). Limits not given; the soluble form lacking the transmembrane segment (210-226) is taken by convention. Any loop deletion is not stated
Kd (BCL-XL): 5700 nM

B14: αBAK1 (designed binder)
chain: GADPKKVLDKAKDQMENVVRKLKQILEELAKEARKLDLTQDEKIELILRYIVAHLAAIGDIEEAIREAKEEADKLKKAGLVNSQQLDEFKRRLEELHKEADRKRRDYAEEFRNKLEYG
modifications: biotinylated for BLI (Avi tag). Limits not given; the conventional BCL-2-fold core 172-327 is taken
Kd (MCL-1): 500 nM

Next, values leading:

Kd [1]: 3100 nM
Kd (BCL-2): 50 nM
Kd (BFL-1): 23 nM
B1: BAX-CDP01 (BAX-targeting computationally designed protein 01) (designed binder)
chain: GADPKKVLDKARDQAENRVRELAQKLEELYKEARKLDLTQEERRKLEKRYKAAMEEAIKDIREAIRQAKQEADKLKKAGLVNSQQLKELKQRLNELAIAAALRAIGDAIEFRRKLQYG

Kd [2]: 10000 nM
Kd (BFL-1): 1700 nM
B6: αBAK1 (designed binder)
chain: GADPKKVLDKAKDQMENVVRKLKQILEELAKEARKLDLTQDEKIELILRYIVAHLAAIGDIEEAIREAKEEADKLKKAGLVNSQQLDEFKRRLEELHKEADRKRRDYAEEFRNKLEYG

Kd (BCL-XL): 100000 nM
B7: αBAK1 (designed binder)
chain: GADPKKVLDKAKDQMENVVRKLKQILEELAKEARKLDLTQDEKIELILRYIVAHLAAIGDIEEAIREAKEEADKLKKAGLVNSQQLDEFKRRLEELHKEADRKRRDYAEEFRNKLEYG
modifications: biotinylated for BLI (Avi tag). Limits not given; the soluble form lacking the transmembrane segment (210-226) is taken by convention. Any loop deletion is not stated

Kd (BCL-W): 5000 nM
B8: αBAK2 (designed binder)
chain: GADPKKVLDKADDQMENVVVTLKQELEELAKERRKLDLTQSEKIELKLRYIVAHLAAIGDIEEAIREAKEEADKLKKAGLVNSQQFAEFKRRLEELHKEADRKRRDYAEEFRNKLEYG
modifications: biotinylated for BLI (Avi tag). Limits not printed in the text (constructs as in cited earlier work); the soluble form lacking the C-terminal tail is taken by convention. Any solubility mutations are not stated

Kd (MCL-1): 310 nM
B9: αBAK2 (designed binder)
chain: GADPKKVLDKADDQMENVVVTLKQELEELAKERRKLDLTQSEKIELKLRYIVAHLAAIGDIEEAIREAKEEADKLKKAGLVNSQQFAEFKRRLEELHKEADRKRRDYAEEFRNKLEYG
modifications: biotinylated for BLI (Avi tag). Limits not given; the conventional BCL-2-fold core 172-327 is taken

Kd (BCL-W): 9550 nM
B11: αBAK1 (designed binder)
chain: GADPKKVLDKAKDQMENVVRKLKQILEELAKEARKLDLTQDEKIELILRYIVAHLAAIGDIEEAIREAKEEADKLKKAGLVNSQQLDEFKRRLEELHKEADRKRRDYAEEFRNKLEYG
modifications: biotinylated for BLI (Avi tag). Limits not printed in the text (constructs as in cited earlier work); the soluble form lacking the C-terminal tail is taken by convention. Any solubility mutations are not stated

Kd [2]: > 9000 nM
Kd (BCL-2): 133 nM
Kd (BFL-1): 960 nM
B12: αBAK2 (designed binder)
chain: GADPKKVLDKADDQMENVVVTLKQELEELAKERRKLDLTQSEKIELKLRYIVAHLAAIGDIEEAIREAKEEADKLKKAGLVNSQQFAEFKRRLEELHKEADRKRRDYAEEFRNKLEYG

Kd (BCL-B): 12000 nM
B13: αBAK1 (designed binder)
chain: GADPKKVLDKAKDQMENVVRKLKQILEELAKEARKLDLTQDEKIELILRYIVAHLAAIGDIEEAIREAKEEADKLKKAGLVNSQQLDEFKRRLEELHKEADRKRRDYAEEFRNKLEYG
modifications: biotinylated for BLI (Avi tag). Limits not given; the soluble form lacking the transmembrane segment (183-200) is taken by convention
